{"source": "paper PMC8920075", "target": "SARS CoV-1 RBD (SARS-CoV-1)", "assay": "ELISA"}
{"molecule": "REGN10933 (Casirivimab) (antibody)", "values": [{"measurement": "EC50", "value": 14, "unit": "nM"}]}
{"molecule": "REGN-10987 (Imdevimab) (antibody, V domains shown) VH: QVQLVESGGGVVQPGRSLRLSCAASGFTFSNYAMYWVRQAPGKGLEWVAVISYDGSNKYYADSVKGRFTISRDNSKNTLYLQMNSLRTEDTAVYYCASGSDYGDYLLVYWGQGTLVTVSS VL: QSALTQPASVSGSPGQSITISCTGTSSDVGGYNYVSWYQQHPGKAPKLMIYDVSKRPSGVSNRFSGSKSGNTASLTISGLQSEDEADYYCNSLTSISTWVFGGGTKLTVL", "values": [{"measurement": "EC50", "value": "> 100", "unit": "nM"}]}
